In patent publication US7968297B2, “Method for identification, isolation and production of antigens to a specific pathogen” (Intercell AG, priority 2001, dated 2011):

Columns and labels:
[1] = biological target: T1, DRA1*0101/DRB1*0401 (Homo sapiens, UniProt P01903+P01911, A100K/A169T/F76Y/I96L/K127E/L162R/M171V/N62H/P40V/Q125Y/R42H/S133A/S149N/S66Y/V115G/V209L/W38E); assay: Competition assay with soluble HLA class II molecules; set-up: key: +, + +: binding; +, + +: binding; −: no competition up to 200 μM test peptide; details: binding to soluble DRA1*0101/DRB1*0401 molecules
T1 construct: using recombinant soluble versions of HLA class II molecules; made in house; host or cells: SC-2 cells
Description: Binding of peptides to HLA molecules on the surface of antigen-presenting cells is a prerequisite for activation of T cells. Binding was assessed in vitro by two independent biochemical assays using recombinant soluble versions of HLA class II molecules. One assay measures the concentration dependent competitive replacement of a labeled reference peptide by the test peptides. The second assay is based on the formation of SDS-stable complexes upon binding of high- and intermediate affinity ligands.
Soluble HLA molecules (DRA1*0101/DRB1*0101 and DRA1*0101/DRB1*0401) were expressed in SC-2 cells and purified as described in Aichinger et al., 1997. For the competition assay (Hammer et al. 1995) HLA molecules were applied between 50 and 200 ng/well. For DRB1*0101 biotinilated indicator peptide HA (PKYVKQNTLKLAT—SEQ ID NO:602, Valli et al. 1993) was used at 0.008 μM. […] Molecules, indicator and test peptides were incubated overnight at 37° C., pH 7. HLA:peptide complexes obtained after incubation with serial dilutions of test and reference peptides (the known high-affinity binders HA and UD4 were used as positive control) were captured in ELISA plates coated with antibody L243, which is known to recognize a conformational epitope formed only by correctly associated heterodimers. Incorporated biotin was measured by standard colorimetric detection using a streptavidin-alkaline phosphatase conjugate (Dako) with NBT/BCIP tablets (Sigma) as substrate and automated OD reading on a Victor reader (Wallac).

[2] = test system: antibodies in human patient sera; assay: Western blot reactivity of selected clones with human sera; assay type: binding; details: clone and its aa region are named in the cell; prefix A/B/C = screen the clone came from
Description: For Western blot analysis approximately 10 to 20 μg of total cellular protein was separated by 10% SDS-PAGE and blotted onto HybondC membrane (Amersham Pharmacia Biotech, England). The LamB or FhuA fusion proteins were detected using human serum as the primary antibody at a dilution of 1:5000 and anti human IgG antibodies coupled to HRP at a dilution of 1:5000 as secondary antibodies. Detection was performed using the ECL detection kit (Amersham Pharmacia Biotech, England). Alternatively, rabbit anti FhuA or mouse anti LamB antibodies were used as primary antibodies in combination with the respective secondary antibodies coupled to HRP for the detection of the fusion proteins.
Subsequent sequencing of a larger number of randomly picked clones (500 to 800 per screen) led to the identification of the gene and the corresponding peptide or protein sequence that was specifically recognized by the human patient serum used for screening. The frequency with which a specific clone is selected reflects at least in part the abundance and/or affinity of the specific antibodies in the serum used for selection and recognizing the epitope presented by this clone. […] All clones that are presented in Table 2 have been verified by Western blot analysis using whole cellular extracts from single clones to show the indicated reactivity with the pool of human serum used in the screen.
10 to 30 different human patient sera were subsequently used to evaluate the presence of antibodies against the selected immunogenic peptide sequences that have been discovered in the screen according to the present invention. To eliminate possible cross-reactivity with proteins expressed by E. coli, all sera were pre-adsorbed with a total cellular lysate of E. coli DHa cells expressing FhuA protein.
This analysis is summarized in Table 2 and as an example shown in FIG. 4 and is indicative of the validity of the present screen.

Molecule | binding [1] | Serum reactivity with relevant region (positive/total) [2]
AGGIFYNQTNQQLLVLCDGMGGHK [p23-47] | − (−: no competition up to 200 μM test peptide) | 
MNYGYGPGVVTSRTISASQA (EMNYGYGPGVVTSRTISASQA; listed as Staphylococcus aureus) [p240-260] | + | 
TIFRYVEGKSLYE [p416-428] | − (−: no competition up to 200 μM test peptide) | 
KLLVLTMSTLFATQIMNSNHAKASV [p4-29] | + | 
FMVEGQRVRTISTYAINNTRCTIF [p395-418] | − (−: no competition up to 200 μM test peptide) | 
IKLVSYDTVKDYAYIRFSVSNGTKA [p209-233] | + | 
MHVPSFQNNTTATHQN [p254-270] | + | 
NNLRGYLIMPNQTLQIPNG (NNLRGYLIMPNQTLQIPNGG; listed as Staphylococcus aureus) [p117-136] | − (−: no competition up to 200 μM test peptide) | 
YDYKYFYSYKVVKGVKKYFSFSQS [p275-299] | + | 
GESLNIIASRYGVSVDQLMAANNLRG (listed as Staphylococcus aureus) [p96-121] | − (−: no competition up to 200 μM test peptide) | 
QSWWGLYALLGMLALFIPKFRKESK (listed as Staphylococcus aureus) [p871-896] | − (−: no competition up to 200 μM test peptide) | 
PKLRSFYSIRKSTLGVASVIVST (listed as Staphylococcus aureus) [p6-28] | + | 
KDYAYIRFSVSNGTKAVKIVSSTHFNN [p218-244] | + | 
IKINHFCVVPQINSFKVIPPYGHNS [p226-251] | − (−: no competition up to 200 μM test peptide) | 
MTLPLMALLALSSIVAFVLPRKRKN [p623-647] | − (−: no competition up to 200 μM test peptide) | 
YKVVKGVKKYFSFSQSNGYKIG [p284-305] | + | 
FPYIPDKAVYNAIVKVVVANIGYEGQ (FPYIPDKAVYNAIVKVVVANIGYEGQY; listed as Staphylococcus aureus) [p620-646] | + | 
KEFKSFYSIRKSSLGVASVAISTL [p6-30] | + + | 
VIVSTLFLISQHQAQA (VIVSTLFLITSQHQAQA; listed as Staphylococcus aureus) [p24-40] | − (−: no competition up to 200 μM test peptide) | 
ALVFEKSVVIANVGDSRA [p107-124] | − (−: no competition up to 200 μM test peptide) | 
PSLNIKNVNYQYAVPSYSPT (listed as Staphylococcus aureus) [p306-326] | + | 
ORF2694 (protein, listed as Staphylococcus epidermidis) MKHSSKIIVFVSFLILTIFIGGCGFINKEDSKEAEIKQNFNKTLSMYPTKNLEDFYDKEGYRDEEFDKDDKGTWIINSKMIVEPKGEEMEARGMVLRINRNTRTAKGNFIIKRITENNKGIPDVKDKKYPVKMEHNKIIPTKQIKDKKLKKEIENFKFFVQYGNFKNLKDYKDGEISYNPNVPSYSAQYQLNNYDNNVKQLRKRYDIPTNQAPKLLLKGTGDLKGSSVGYKHLEFTFVENKKENIYFTDSINFNPSRGN |  | B: SELAB26(27-60): 5/12
ORF2671 (protein, listed as Staphylococcus epidermidis) VKHSKKLLLCISFLLITFFIGGCGFMNKDDGKETEIKQNFNKMLNVYPTKNLENFYDKEGYRDEEFDKDDKGTWIVHSKMVIEPKGKNMESRGMVLFINRNTRTSKGYFIVNEIEKDRKGRPINNKKKYPVKMKNNKIIPTKPISNDKLKKEIENFKFFVQYGNFKDIKNYKDGDISYNPNVPSYSAKYQLSNNEYNVQQLRKRYDIPTKKVPKLLLKGDGDLKGSSVGSKNLEFTFIENKEENIYFTDSVLFSPSEDNES |  | B: SELAD21(36-61): 5/12
ORF2695 (protein, listed as Staphylococcus epidermidis) MRYLKKVTIYISLLILTIFIGGCGFINKEDSKETEIKQNFNKMLNVYPTKNLEDFYDKEGFRDEEFDKGDKGTWIIRSEMTKQPKGKIMTSRGMVLYINRNTRTAKGYFLIDEIKDDNSGRPIENEKKYPVKMNHNKIFPTKPISDDKLKKEIENFKFFVQYGDFKNLKDYKDGEISYNPNVPSYSAQYQLNNNDNNVKQLRKRYDIPTNQAPKLLLKGDGDLKGSSVGSKNLEFTFVENKEENIFFTDAVQFTPSEDDES |  | A: SEFAH77(22-66): 6/12
ORF2673 (protein, listed as Staphylococcus epidermidis) MRYLKKVTIYISLLILVSGCGNGKETEIKQNFNKMLDMYPTKNLEDFYDKEGYRDEEFDKKDKGTWIVGSTMTIEPKGKYMESRGMFLYINRNTRTTKGYYYVRKTTDDSKGRLKDDEKRYPVKMEHNKIIPTKPIPNDKLKKEIENFKFFVQYGDFKNLKDYKDGDISYNPNVPSYSAKYQLSNNDYNVKQLRKRYDIPTNQAPKLLLKGDGDLKGSSIGSKSLEFTFIENKEENIFFSDGVQFTPSEDSES |  | B: SELAE25(23-54): 2/12
